In the supplement of paper PMC10724198:

Columns and labels:
Saccharomyces cerevisiae [1] = test: protein stability index of tFT-peptide fusion in deletion strain of DAS1 (PSI (0-1 scale)); higher = more stable (slower turnover)
Method: (§1)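 MPS profiling in S. cerevisiae of two library types built from selected 12-aa C-degron peptides (IN1, IN2, LN1, LN3, VN2, R1-R5, W1-W3, Atg1 and Rpa12 C-termini): saturation mutagenesis libraries and C-terminal +1 capping libraries (13 aa). Each peptide is fused to the C-terminus of a sfGFP-mCherry timer, after a GGGS linker. Cells are FACS-sorted into 8 mCherry/sfGFP bins and sequenced. PSI runs from 0 (unstable) to 1 (stable), measured once in wild type and in the das1Δ or doa10Δ background.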

Saccharomyces cerevisiae [2] = test: protein stability index of tFT-peptide fusion in wild type (PSI (0-1 scale)); higher = more stable (slower turnover); conditions: genetic background: wild type
Method: as §1
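Wherever protein stability index of tFT-peptide fusion in deletion strain of DAS1 is given: PSI is a weighted mean of each variant's read distribution over the sorted stability bins, computed only for variants having over 10 reads in total.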
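Wherever protein stability index of tFT-peptide fusion in wild type is given: PSI derived as read-weighted mean over the 8 sorting bins, only variants exceeding 10 total reads kept, mCherry placed adjacent to the peptide and sfGFP distal.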

Row | Sequence | protein stability index (Saccharomyces cerevisiae [1]) | protein stability index (Saccharomyces cerevisiae [2])
1 | ARWRVGLVRGAS | 0.663 | 0.614
2 | ARWRVGLWHGAS | 0.665 | 0.624
3 | ARWRVGLWKGAS | 0.671 | 0.64
4 | ARWRVGLWQGAS | 0.578 | 0.602
5 | ARWRVGLWRGASG | 0.674 | 0.662
6 | ARWRVGLWRGASP | 0.672 | 0.663
7 | ARWRVGLWRKAS | 0.672 | 0.1
8 | ARWRVGLWRWAS | 0.694 | 0.0999
9 | ARWRVGSWRGAS | 0.692 | 0.641
10 | ARWRVQLWRGAS | 0.689 | 0.287
11 | ARWRVVLWRGAS | 0.621 | 0.517
12 | CHSCGYKFRTNN | 0.715 | 0.212
13 | CNSCGYKFRTNN | 0.702 | 0.193
14 | CQSCGYKFRTNN | 0.7 | 0.248
15 | CRWRVGLWRGAS | 0.697 | 0.276
16 | CSMRWTFRYWVN | 0.573 | 0.0623
17 | CTLCGYKFRTNN | 0.72 | 0.278
18 | CTSCGEKFRTNN | 0.666 | 0.523
19 | CTSCGIKFRTNN | 0.688 | 0.376
20 | CTSCGPKFRTNN | 0.674 | 0.598
21 | CTSCGYKDRTNN | 0.702 | 0.634
22 | CTSCGYKFGTNN | 0.693 | 0.688
23 | CTSCGYKFRPNN | 0.714 | 0.727

Row | Sequence | protein stability index (Saccharomyces cerevisiae [1]) | protein stability index (Saccharomyces cerevisiae [2])
24 | CTSCGYKFRTLN | 0.696 | 0.132
25 | CTSCGYKFRTNL | 0.703 | 0.652
26 | CTSCGYKFRTNNC | 0.673 | 0.708
27 | CTSCGYKFRTNNT | 0.689 | 0.692
28 | CTSCGYKFVTNN | 0.692 | 0.495
29 | CTSCGYKTRTNN | 0.679 | 0.632
30 | CTSCGYKVRTNN | 0.693 | 0.388
31 | CTSCGYLFRTNN | 0.698 | 0.348
32 | CTSCGYYFRTNN | 0.697 | 0.283
33 | CTSCLYKFRTNN | 0.675 | 0.185
34 | CTSGGYKFRTNN | 0.673 | 0.551
35 | CTSNGYKFRTNN | 0.674 | 0.381
36 | CTSWGYKFRTNN | 0.744 | 0.137
37 | CTWCGYKFRTNN | 0.685 | 0.224
38 | DKILRQKMNHQN | 0.672 | 0.121
39 | ERGAVGGWRLVG | 0.675 | 0.168
40 | ESMRWTFRYWVN | 0.56 | 0.0849
41 | FSGRWTFRYWVN | 0.626 | 0.0867
42 | FSMRGTFRYWVN | 0.608 | 0.106
43 | FSMRHTFRYWVN | 0.588 | 0.0782
44 | FSMRQTFRYWVN | 0.558 | 0.0909
45 | FSMRWKFRYWVN | 0.577 | 0.0643
46 | FSMRWTARYWVN | 0.513 | 0.0802

Row | Sequence | protein stability index (Saccharomyces cerevisiae [1]) | protein stability index (Saccharomyces cerevisiae [2])
47 | FSMRWTFRKWVN | 0.634 | 0.314
48 | FSMRWTFRYCVN | 0.492 | 0.088
49 | FSMRWTFRYMVN | 0.577 | 0.0804
50 | FSMRWTFRYWLN | 0.486 | 0.0521
51 | FSMRWTFRYWMN | 0.485 | 0.07
52 | FSMRWTFRYWSN | 0.538 | 0.313
53 | FSMRWTFRYWVE | 0.473 | 0.502
54 | FSMRWTFRYWVG | 0.476 | 0.422
55 | FSMRWTFRYWVNC | 0.508 | 0.114
56 | FSMRWTFRYWVNI | 0.527 | 0.134
57 | FSMRWTFRYWVT | 0.469 | 0.225
58 | FSMRWTFRYWYN | 0.48 | 0.149
59 | FSMRWTFYYWVN | 0.418 | 0.0564
60 | FSMRWTWRYWVN | 0.625 | 0.0598
61 | FSPRWTFRYWVN | 0.59 | 0.075
62 | FSSRWTFRYWVN | 0.604 | 0.1
63 | FVVYLSCVACIN | 0.0242 | 0.0218
64 | FWMRWTFRYWVN | 0.379 | 0.0402
65 | HSMRWTFRYWVN | 0.586 | 0.0543
66 | HVVYLSCVACIN | 0.0397 | 0.0139
67 | IKILRQKMNHQN | 0.659 | 0.177
68 | KKEKKGQKQKIN | 0.578 | 0.0774
69 | KKFKKGQKQKIN | 0.575 | 0.129

Row | Sequence | protein stability index (Saccharomyces cerevisiae [1]) | protein stability index (Saccharomyces cerevisiae [2])
70 | KKHKCGQKQKIN | 0.582 | 0.0807
71 | KKHKKAQKQKIN | 0.601 | 0.06
72 | KKHKKCQKQKIN | 0.548 | 0.0395
73 | KKHKKGQKAKIN | 0.611 | 0.241
74 | KKHKKGQKGKIN | 0.584 | 0.563
75 | KKHKKGQKKKIN | 0.576 | 0.523
76 | KKHKKGQKMKIN | 0.583 | 0.105
77 | KKHKKGQKQIIN | 0.584 | 0.642
78 | KKHKKGQKQKIH | 0.662 | 0.114
79 | KKHKKGQKQKINN | 0.659 | 0.231
80 | KKHKKGQKQKINP | 0.663 | 0.658
81 | KKHKKGQKQKINQ | 0.664 | 0.644
82 | KKHKKGQKQKINR | 0.657 | 0.644
83 | KKHKKGQKQKIP | 0.638 | 0.336
84 | KKHKKGQKQKQN | 0.583 | 0.264
85 | KKHKKGQKTKIN | 0.619 | 0.435
86 | KKHKKGQYQKIN | 0.569 | 0.0851
87 | KKHMKGQKQKIN | 0.551 | 0.103
88 | KKHRKGQKQKIN | 0.678 | 0.109
89 | KKHTKGQKQKIN | 0.622 | 0.129
